T1: HCoV-OC43 spike antigens (bead panel) (HCoV-OC43, UniProt P36334 14-1297)
T1 sequence: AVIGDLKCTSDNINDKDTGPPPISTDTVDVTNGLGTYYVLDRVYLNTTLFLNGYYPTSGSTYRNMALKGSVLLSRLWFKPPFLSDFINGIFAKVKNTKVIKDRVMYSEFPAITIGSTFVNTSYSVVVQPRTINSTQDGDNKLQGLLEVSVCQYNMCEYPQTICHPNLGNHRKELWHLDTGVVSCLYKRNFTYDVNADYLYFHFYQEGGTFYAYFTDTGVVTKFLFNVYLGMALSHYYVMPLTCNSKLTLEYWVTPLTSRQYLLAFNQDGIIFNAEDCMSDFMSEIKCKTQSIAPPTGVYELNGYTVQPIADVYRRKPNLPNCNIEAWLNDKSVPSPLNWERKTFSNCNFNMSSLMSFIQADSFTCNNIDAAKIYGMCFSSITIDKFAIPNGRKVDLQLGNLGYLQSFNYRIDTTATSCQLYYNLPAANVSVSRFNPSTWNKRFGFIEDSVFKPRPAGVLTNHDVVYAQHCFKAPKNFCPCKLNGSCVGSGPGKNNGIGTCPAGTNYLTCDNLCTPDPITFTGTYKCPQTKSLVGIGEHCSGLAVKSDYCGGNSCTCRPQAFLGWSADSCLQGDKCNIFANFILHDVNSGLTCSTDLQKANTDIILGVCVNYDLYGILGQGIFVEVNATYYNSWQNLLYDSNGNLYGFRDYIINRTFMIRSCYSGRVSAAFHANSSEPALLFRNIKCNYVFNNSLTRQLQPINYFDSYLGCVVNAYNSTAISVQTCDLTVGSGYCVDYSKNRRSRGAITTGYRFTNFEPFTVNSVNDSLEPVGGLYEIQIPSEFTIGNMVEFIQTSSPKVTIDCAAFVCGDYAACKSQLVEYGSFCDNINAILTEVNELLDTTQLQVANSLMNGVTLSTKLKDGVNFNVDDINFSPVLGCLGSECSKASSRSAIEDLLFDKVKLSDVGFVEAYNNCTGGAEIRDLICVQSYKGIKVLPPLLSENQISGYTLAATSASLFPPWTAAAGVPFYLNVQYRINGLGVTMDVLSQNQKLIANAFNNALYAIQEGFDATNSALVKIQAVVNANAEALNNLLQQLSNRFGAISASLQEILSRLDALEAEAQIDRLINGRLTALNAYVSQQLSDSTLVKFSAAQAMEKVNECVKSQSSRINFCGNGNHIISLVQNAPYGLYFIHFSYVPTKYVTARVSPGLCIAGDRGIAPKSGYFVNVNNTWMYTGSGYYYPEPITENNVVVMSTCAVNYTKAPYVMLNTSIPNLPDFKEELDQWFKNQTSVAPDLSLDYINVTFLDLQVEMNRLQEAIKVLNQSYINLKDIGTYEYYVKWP

T2: HCoV-229E spike antigens (bead panel) (HCoV-229E, UniProt P15423 16-1115)
T2 sequence: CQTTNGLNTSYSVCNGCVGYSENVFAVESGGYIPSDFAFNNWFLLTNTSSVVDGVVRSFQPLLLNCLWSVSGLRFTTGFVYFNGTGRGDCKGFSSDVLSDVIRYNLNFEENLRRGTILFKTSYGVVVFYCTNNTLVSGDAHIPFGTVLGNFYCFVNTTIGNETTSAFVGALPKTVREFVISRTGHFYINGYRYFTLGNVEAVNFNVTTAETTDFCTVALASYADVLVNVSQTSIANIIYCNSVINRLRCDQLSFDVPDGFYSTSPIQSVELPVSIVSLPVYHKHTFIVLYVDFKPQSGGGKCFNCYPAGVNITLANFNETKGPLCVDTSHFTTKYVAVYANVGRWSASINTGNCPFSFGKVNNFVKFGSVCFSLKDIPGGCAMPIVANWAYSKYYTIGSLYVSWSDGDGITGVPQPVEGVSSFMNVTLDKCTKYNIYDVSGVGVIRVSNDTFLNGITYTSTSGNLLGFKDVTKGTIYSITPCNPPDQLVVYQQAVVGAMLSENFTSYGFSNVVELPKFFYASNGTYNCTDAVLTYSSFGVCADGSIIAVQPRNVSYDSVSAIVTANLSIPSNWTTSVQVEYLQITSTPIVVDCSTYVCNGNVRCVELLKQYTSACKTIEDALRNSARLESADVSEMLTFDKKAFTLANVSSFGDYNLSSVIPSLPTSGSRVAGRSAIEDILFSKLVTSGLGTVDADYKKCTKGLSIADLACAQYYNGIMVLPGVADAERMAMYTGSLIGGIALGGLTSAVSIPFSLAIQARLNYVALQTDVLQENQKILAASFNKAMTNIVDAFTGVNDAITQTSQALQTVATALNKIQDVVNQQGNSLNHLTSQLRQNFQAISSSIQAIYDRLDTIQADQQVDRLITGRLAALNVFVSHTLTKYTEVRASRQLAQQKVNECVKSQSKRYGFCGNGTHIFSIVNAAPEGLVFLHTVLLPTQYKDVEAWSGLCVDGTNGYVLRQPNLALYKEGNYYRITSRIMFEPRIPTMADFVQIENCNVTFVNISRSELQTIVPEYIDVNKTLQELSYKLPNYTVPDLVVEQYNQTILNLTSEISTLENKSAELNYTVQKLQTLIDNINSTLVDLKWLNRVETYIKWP

T3: MERS-CoV spike antigens (bead panel) (MERS-CoV, UniProt K9N5Q8 18-1296)
T3 sequence: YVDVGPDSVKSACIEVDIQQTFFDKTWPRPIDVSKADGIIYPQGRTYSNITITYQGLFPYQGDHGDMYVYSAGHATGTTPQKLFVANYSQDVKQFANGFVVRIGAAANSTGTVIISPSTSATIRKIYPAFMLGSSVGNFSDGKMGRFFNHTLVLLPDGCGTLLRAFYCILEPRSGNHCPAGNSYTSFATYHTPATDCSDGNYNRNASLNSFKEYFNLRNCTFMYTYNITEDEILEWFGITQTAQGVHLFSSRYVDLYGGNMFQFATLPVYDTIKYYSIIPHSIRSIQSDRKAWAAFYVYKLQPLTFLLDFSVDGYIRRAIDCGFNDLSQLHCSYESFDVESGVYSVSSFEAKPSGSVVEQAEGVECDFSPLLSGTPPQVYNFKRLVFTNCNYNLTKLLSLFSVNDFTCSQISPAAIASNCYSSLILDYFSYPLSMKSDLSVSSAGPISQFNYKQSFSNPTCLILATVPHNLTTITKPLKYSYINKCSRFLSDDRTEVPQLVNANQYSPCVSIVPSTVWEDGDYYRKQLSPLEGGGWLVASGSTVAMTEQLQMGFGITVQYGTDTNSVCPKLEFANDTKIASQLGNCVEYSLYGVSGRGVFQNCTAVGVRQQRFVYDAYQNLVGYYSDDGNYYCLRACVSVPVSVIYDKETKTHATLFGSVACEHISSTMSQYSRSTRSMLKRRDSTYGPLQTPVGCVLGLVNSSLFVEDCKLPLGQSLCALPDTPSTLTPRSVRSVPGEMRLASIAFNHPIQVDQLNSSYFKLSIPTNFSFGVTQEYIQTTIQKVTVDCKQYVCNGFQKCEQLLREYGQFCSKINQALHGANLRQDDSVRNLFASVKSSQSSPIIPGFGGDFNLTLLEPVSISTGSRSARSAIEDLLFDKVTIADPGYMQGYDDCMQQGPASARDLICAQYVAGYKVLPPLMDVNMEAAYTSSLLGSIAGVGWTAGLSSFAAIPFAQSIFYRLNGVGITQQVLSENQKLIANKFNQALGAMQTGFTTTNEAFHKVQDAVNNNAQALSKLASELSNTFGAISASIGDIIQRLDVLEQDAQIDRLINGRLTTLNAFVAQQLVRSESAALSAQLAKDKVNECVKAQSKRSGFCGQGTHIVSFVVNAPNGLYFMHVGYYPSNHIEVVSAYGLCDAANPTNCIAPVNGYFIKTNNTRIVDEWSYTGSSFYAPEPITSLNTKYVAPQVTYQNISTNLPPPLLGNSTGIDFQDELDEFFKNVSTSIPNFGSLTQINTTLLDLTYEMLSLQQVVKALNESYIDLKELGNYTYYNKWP

B1: COV_3043 (antibody, V domains shown)
VH: EVQVVESGGGLVQPGRSLRLSCTASGFNFGDNSMSWVRQAPGKGLEWVGFISNRDHSGTTDYAASVKGRFTISRDDSKSIAYLQMNSLKTEDTAIYYCIRDSYGHFPNYGFDVWGQGTMVTVSS
VL: DVVMTQTPLSLSVTPGQPASISCKCSQSLIHSDGKTYQYWFLQRPGQPPQLLIYDVSNRVSGVPDRFSGSGSGTDFTLKISRVEAEDVGVYYCMHSINFPRTFGQGTKVEIT
B2: COV_2024 (antibody, V domains shown)
VH: QVQLVQSGAEVRKPGSSVKVSCKASGGTFSTYAISWVRQAPGQGLEWMGGIIPMFGTTNYAQKFQGRVTITADESTRTAYMELSSLRSEDTAVYYCARDGGYDSWPDFDYWGQGTLVTVSS
VL: EIVLTQSPATLSLSPGERATLSCRASQSISSFLAWYQQKPGQAPRLLIYDASNRATGIPARFSGSGSGTDFTLTVSSLEPEDFAVYYCHQRRNWPPIKTFGQGTKVDIK
notes: human IgG1
B3: COV_1060 (antibody, V domains shown)
VH: EVQLVQSGAEVKKPGESLKISCKSSGYTFTSFWIAWVRQLPGKGLEWMGIIYPGDSDTKYSPSFQGQVTISADKSISTAYLQWSSLKASDTAMYYCARLRGSCSNGVCYAYYYNAMDVWGPGTTVTVSS
VL: QSALTQPASVSGSPGQSITISCTGTSSDIGRYNYVSWYQHHPGKAPKLMIYEVSNRPSGVSNRFSGSKSGNTASLTISGLQAEDEADYYCTSYTSGSTLGFGGGTKVTVLG
B4: COV_1012 (antibody, V domains shown)
VH: QVQLQESGPGLVRPSGTLSLTCAVSGGSISSSNWWSWVRQPPGKGLEWIGEIYRSGSTNYNPSLKSRVTISVAQSKNQFSLNLTSVTAADTAVYYCAKIIVGAPSDAFDIWGQGTMVTVSS
VL: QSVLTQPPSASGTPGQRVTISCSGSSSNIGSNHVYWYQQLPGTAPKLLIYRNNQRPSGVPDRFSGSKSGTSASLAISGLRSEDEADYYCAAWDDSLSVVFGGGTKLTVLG
notes: human IgG1
B5: COV_2056 (SEQ ID NO:432/437) (antibody, V domains shown)
VH: EVQLVESGGGVVQPGRSLRLSCAASGFTFSIYGMHWVRQAPGKGLEWVALISYDGTNKYYADSVKGRFSISRDDSKNTLYLQMNSLRPEDTAVYYCAKVLMMGDSSGFSLGDAFDIWGQGTMVTVSS
VL: DIQMTQSPSSVSASVGDRVTITCRASQGISNWLAWYQQKPGKAPKLLIYAASSLQSGVPSRFSGSVSGTDFTLTISSLQPEDFATYYCQQANSFPLTFGGGTKVDIK
B6: COV_2151 (antibody, V domains shown)
VH: QVQLQESGPRLVKPSETLSLTCTVSGGSISGSNYFWGWIRQPPGKGLEWIGTIYYGGSTYYNPSLKSRVTISVDTSENQFSLKLSSVTAADTAVYYCANLAWLRGYFDYWGQGTLVTVSS
VL: NFMLTQPHSVSESPGKTVTISCTRSSGSIASNYVQWYQQRPGSAPTTVIYEDNQRPSGVPDRFSGSIDSSSNSVSLTISGLKTEDEADYYCQSYDSSNWVFGGGTKLTVL
notes: human IgG1
B7: COV_1056 (antibody, V domains shown)
VH: QVQLVESGGGVVQPGTSLRLSCEASGFTFSAYGMHWVRQAPGKGLEWVAISRNDGTTKYYADSVKGRLTISRDNSKNTLYLQMNSLTSEDTAVYYCANQCGGGCSVDSWGQGTLVTVSS
VL: QAVVTQEASLTVSPGGTVTLTCGSSTGSVTSGHAPYWFQQKPGQAPRTLIFDTTHKHSWTPARFSGSLLGGKAALTLSGAQPEDEAEYYCLLSFGGAHVFGTGTKVTVLG
B8: COV_2055 (antibody, V domains shown)
VH: EVQLVESGGGVVQPGRSLRLSCAASGFTLSSYGMHWVRQAPGKGLEWVAVISYEGSNKHYADSVKGRFTISRDNSKNTLYLQMNSLRAEDTAVYYCAKGSTNYFDHWGQGTLVTVSS
VL: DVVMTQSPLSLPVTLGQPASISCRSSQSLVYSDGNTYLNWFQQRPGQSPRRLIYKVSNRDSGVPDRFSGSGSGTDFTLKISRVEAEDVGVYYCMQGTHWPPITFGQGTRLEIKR
notes: human IgG1

Key:
[1] = target: SARS-CoV-2 S on pseudovirions (Wuhan Hu-1 / IL1/2020, last 18 amino acids removed) (SARS-CoV-2, UniProt P0DTC2 14-1273); test: cell-based or functional assay
[2] = target: T1, HCoV-OC43 spike antigens (bead panel); test: multiplex bead assay
[3] = target: T2, HCoV-229E spike antigens (bead panel); test: multiplex bead assay
[4] = target: T3, MERS-CoV spike antigens (bead panel); test: multiplex bead assay

Row | Binder | Mean IC50, pSV neutralization [1] | Mean IC80, pSV neutralization [1] | binding result [2] | binding result [3] | binding result [4]
1 | B1 | ≥ 25 µg/ml | ≥ 25 µg/ml | – | – | –
2 | B2 | 9.59 µg/ml | ≥ 25 µg/ml | no binding | – | –
3 | B3 | ≥ 25 µg/ml | ≥ 25 µg/ml | – | – | –
4 | B4 | ≥ 25 µg/ml | ≥ 25 µg/ml | – | no binding | –
5 | B5 | 13.2 µg/ml | ≥ 25 µg/ml | no binding | – | –
6 | B6 | 0.12 µg/ml | 1.21 µg/ml | no binding | – | –
7 | B7 | ≥ 25 µg/ml | ≥ 25 µg/ml | – | – | –
8 | B8 | – | – | – | no binding | no binding

From patent publication US20240101645A1 (HENRY M JACKSON FOUNDATION FOR THE ADVANCEMENT OF MILITARY …, published 2024)
